Laboratory results: patent US20200230168, “NUCLEIC ACID OLIGOMERS AND USES THEREFOR” (Queensland University of Technology, published 2020)

Columns and labels:
[1] = target: T1, hSSB1 (Homo sapiens, UniProt Q9BQ15 Q9BQ15:1-211); test: SPR; LSA_In3E3 = 1
[2] = target: T2, THOC4 (ALYREF) (UniProt Q86V81 Q86V81:2-257); test: SPR; LSA_In3E3 = 1
[3] = target: T2, THOC4 (ALYREF); test: EMSA; 10 mM Tris pH 8.0, 100 mM NaCl, 1 mM EDTA, 37C
[4] = target: T1, hSSB1; test: EMSA; conditions: label: FAM
Method: FIG. 15 is a graphic representation of hSSB1 EMSAs showing increasing concentrations of hSSB1 protein vs. 5 nM of FAM-labeled LSA_In3E3 sequence in either phosphorothioate (PS) or phosphodiester (PD) chemistry, or negative control sequence (Neg_C) in phosphorothioate chemistry. Graphs represent quantification of at least triplicate experiments, expressed as the fraction of oligomer compound bound to the protein. Purified protein was incubated with 5 nM of labeled oligomer compound for 15 min at 37° C. in a buffer consisting of 10 mM Tris-HCl (pH7.5), 100 mM KCl, 0.01% IGEPAL, 1 mM EDTA and 50 ng/μL BSA.
(§1) FAM-labeled non-targeting PS compound, LSA_In3E3, PD compounds, DNA_In3E3 and RNA_In3E3, and a negative control oligomer compound, NEGC, were incubated separately with purified mouse SSB1 (mSSB1), hSSB1 and human SSB2 (hSSB2) proteins.

[5] = target: mSSB1 (Mus musculus, UniProt Q8R2Y9 Q8R2Y9:1-212); test: EMSA; conditions: label: FAM
Method: as §1

[6] = target: T1, hSSB1; test: SPR
[7] = target: T2, THOC4 (ALYREF); test: SPR

T1 sequence (Q9BQ15 whole entry, one chain of several): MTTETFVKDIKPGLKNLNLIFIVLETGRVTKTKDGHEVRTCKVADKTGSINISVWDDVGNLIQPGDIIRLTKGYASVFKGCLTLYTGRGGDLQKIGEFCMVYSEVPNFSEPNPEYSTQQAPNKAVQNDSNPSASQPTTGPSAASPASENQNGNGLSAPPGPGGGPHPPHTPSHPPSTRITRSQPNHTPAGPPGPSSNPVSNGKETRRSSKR
mSSB1, sequence (Q8R2Y9 whole entry, one chain of several): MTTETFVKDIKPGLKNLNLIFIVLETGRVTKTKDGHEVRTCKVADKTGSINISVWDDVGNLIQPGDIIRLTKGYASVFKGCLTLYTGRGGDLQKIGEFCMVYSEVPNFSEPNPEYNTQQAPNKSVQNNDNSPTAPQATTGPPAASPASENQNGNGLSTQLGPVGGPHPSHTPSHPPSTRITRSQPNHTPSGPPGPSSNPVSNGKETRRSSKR

Row | Binder | binding signal [1] | binding signal [2] | also measured
1 | CCAGUGAGCCGGACUUGCCU (ssRNA, PS all, no sugar modification) [In3E3 PS only (DKLS426690)] | 0.99 normalized Rmax | 1.06 normalized Rmax | 
2 | CAGAGGCAGCAGUACGACGGCAGAGGCAGC (ssRNA, 2'-OMe all, PS all) [LSA_ATG 30-mer (DKLS428543)] | 1.89 normalized Rmax | 1.21 normalized Rmax | 
3 | CAGAGGCAGCAGUACGACGG (ssRNA, PS all, no sugar modification) [LSA_ATG PS only (DKLS577569)] | 1.44 normalized Rmax | 1.03 normalized Rmax | 
4 | CACGUACCUUAGUGCCUCAC (ssRNA, 2'-OMe all, PS all) [Open_L_1] | 0.8 normalized Rmax |  | Kd [3]: 104 nM
5 | GUGCAUGGAAUCACGGAGUGGUGCAUGGAA (ssRNA, 2'-OMe all, PS all) [Open_A 30-mer (DKLS722361)] | 4.08 normalized Rmax | 1.53 normalized Rmax | 
6 | GUGCAUGGAAUCACGGAGUG (ssRNA, PS all, no sugar modification) [Open_A PS only (DKLS669778)] | 1.3 normalized Rmax | 0.76 normalized Rmax | 
7 | CUCAUUCCUACCGACACCCC (ssRNA, 2'-OMe all, phosphodiester) [Neg_C 2'-OMe PD (DKLS341370)] | 0.37 normalized Rmax | 0.08 normalized Rmax | 
8 | CGCGUCACUCGCACUCGCCU (ssRNA, 2'-OMe all, PS all) [LSA_In3E3_CT5] | 0.46 normalized Rmax |  | Kd [3]: 125 nM
9 | CUCUUGGCUGAGCCCAUCUC (ssRNA, 2'-OMe all, PS all) [cdca3_A_ATG-3] | 1.3 normalized Rmax |  | Kd [3]: 134 nM
10 | CCAGUGAGCCGGACUUGCCU (ssRNA, phosphodiester, unmodified ribose) [RNA_In3E3] |  |  | Kd [4]: 137 nM
11 | GAGAACCGACUCGGGUAGAG (ssRNA, 2'-OMe all, PS all) [cdca3_L_ATG-3] | 1.09 normalized Rmax |  | Kd [3]: 58 nM
12 | CUGAAGCGUACCCUUUGGUG (ssRNA, 2'-OMe all, PS all) [ASO_E3E4] | 0.75 normalized Rmax |  | Kd [3]: 70 nM
13 | CAGAGGCAGCAGUACGACGG (ssRNA, 2'-OMe all, PS all) [LSA_ATG] | 1.1 normalized Rmax | 0.96 normalized Rmax | 
14 | CUCAUUCCUACCGACACCCC (ssRNA, 2'-OMe all, phosphodiester, ZEN at both ends) [Neg_C ZEN (DKLS789189)] | 0.09 normalized Rmax | 0.03 normalized Rmax | 
15 | AGGCAAGUCCGGCUCACUGG (ssRNA, 2'-OMe all, PS all) [RevIn3LSA (DKLS481254)] | 0.82 normalized Rmax | 0.76 normalized Rmax | 
16 | CGUGUCAUCCGCUCUCGACU (ssRNA, 2'-OMe all, PS all) [LSA_In3E3_CT4] | 0.8 normalized Rmax | 0.21 normalized Rmax | 
17 | CCAGACAGCUGGUGUCGCCU (ssRNA, 2'-OMe all, PS all) [In3LSA_scr3_5] | 0.75 normalized Rmax | 0.43 normalized Rmax | 
18 | CCGGUGAGCGACACUAGGCU (ssRNA, 2'-OMe all, PS all) [In3LSA_scr3_4] | 0.77 normalized Rmax | 0.66 normalized Rmax | 
19 | CCAGUGAGCUGGACUUGCCU (ssRNA, 2'-OMe all, PS all) [In3LSA_CU] | 0.97 normalized Rmax | 0.54 normalized Rmax | 
20 | CCAGUGAGCCGGACUUGCCU (ssDNA, deoxyuridine in place of T, phosphodiester) [DNA_In3E3] |  |  | Kd [5]: 13.1 nM; Kd [4]: 13.5 nM
21 | CCAGUGAGCCGGACUUGCCU (ssRNA, 2'-OMe all, PS three at each end) [In3E3 2'-OMe PS ends (DKLS621499)] | 0.12 normalized Rmax |  | 
22 | CCAGUGAGCCGGACUUGCCU (ssRNA, 2'-OMe all, phosphodiester, ZEN at both ends) [In3E3 ZEN (DKLS991101)] | 0.17 normalized Rmax |  | 
23 | CCAGUGAGCCGGACUUGCC (ssRNA, 2'-OMe all, PS all) [In3E3 3' truncation 19 nt] | 0.68 normalized Rmax | 0.9 normalized Rmax | 
24 | CCAGUGAGCCGGACUUGC (ssRNA, 2'-OMe all, PS all) [In3E3 3' truncation 18 nt] | 0.67 normalized Rmax | 0.87 normalized Rmax | 
25 | CCAGUGAGCCGGACUUG (ssRNA, 2'-OMe all, PS all) [In3E3 3' truncation 17 nt] | 0.59 normalized Rmax | 0.69 normalized Rmax | 

Row | Binder | binding signal [1] | binding signal [2] | also measured
26 | CCAGUGAGCCGGACUU (ssRNA, 2'-OMe all, PS all) [In3E3 3' truncation 16 nt] | 0.4 normalized Rmax | 0.38 normalized Rmax | 
27 | CCAGUGAGCCGGACU (ssRNA, 2'-OMe all, PS all) [In3E3 3' truncation 15 nt] | 0.36 normalized Rmax | -0.09 normalized Rmax | 
28 | CCAGUGAGCCGGAC (ssRNA, 2'-OMe all, PS all) [In3E3 3' truncation 14 nt] | 0.35 normalized Rmax | 0.08 normalized Rmax | 
29 | CCAGUGAGCCGGA (ssRNA, 2'-OMe all, PS all) [In3E3 3' truncation 13 nt] | 0.53 normalized Rmax | 0.08 normalized Rmax | 
30 | CCAGUGAGCCGG (ssRNA, 2'-OMe all, PS all) [In3E3 3' truncation 12 nt] | 0.24 normalized Rmax | 0 normalized Rmax | 
31 | CCAGUGAGCC (ssRNA, 2'-OMe all, PS all) [In3E3 3' truncation 10 nt] | 0.11 normalized Rmax | -0.01 normalized Rmax | 
32 | CCAGUGAG (ssRNA, 2'-OMe all, PS all [2'-OMe at 1-8 (all); PS at all linkages]) [In3E3 3' truncation 8 nt] | 0.09 normalized Rmax | -0.05 normalized Rmax | 
33 | CAGUGAGCCGGACUUGCCU (ssRNA, 2'-OMe all, PS all) [In3E3 5' truncation 19 nt] | 0.92 normalized Rmax | 0.87 normalized Rmax | 
34 | AGUGAGCCGGACUUGCCU (ssRNA, 2'-OMe all, PS all) [In3E3 5' truncation 18 nt] | 0.84 normalized Rmax | 0.84 normalized Rmax | 
35 | GUGCAUGGAAUCACGGAGUG (ssRNA, 2'-OMe all, PS all) [Open_A_1] |  |  | Kd [3]: 52 nM
36 | GUGAGCCGGACUUGCCU (ssRNA, 2'-OMe all, PS all) [In3E3 5' truncation 17 nt] | 0.83 normalized Rmax | 0.23 normalized Rmax | 
37 | UGAGCCGGACUUGCCU (ssRNA, 2'-OMe all, PS all) [In3E3 5' truncation 16 nt] | 0.48 normalized Rmax | 0.24 normalized Rmax | 
38 | GAGCCGGACUUGCCU (ssRNA, 2'-OMe all, PS all) [In3E3 5' truncation 15 nt] | 0.4 normalized Rmax | 0.45 normalized Rmax | 
39 | AGCCGGACUUGCCU (ssRNA, 2'-OMe all, PS all) [In3E3 5' truncation 14 nt] | 0.3 normalized Rmax | 0.09 normalized Rmax | 
40 | CCGGACUUGCCU (ssRNA, 2'-OMe all, PS all) [In3E3 5' truncation 12 nt] | 0.13 normalized Rmax | 0.07 normalized Rmax | 
41 | GGACUUGCCU (ssRNA, 2'-OMe all, PS all) [In3E3 5' truncation 10 nt] | 0.07 normalized Rmax | -0.01 normalized Rmax | 
42 | CAGUGAGCCGGACUUGCC (ssRNA, 2'-OMe all, PS all) [In3E3 both-end truncation 18 nt] | 0.91 normalized Rmax | 0.96 normalized Rmax | 
43 | AGUGAGCCGGACUUGC (ssRNA, 2'-OMe all, PS all) [In3E3 both-end truncation 16 nt] | 0.71 normalized Rmax | 0.68 normalized Rmax | 
44 | GUGAGCCGGACUUG (ssRNA, 2'-OMe all, PS all) [In3E3 both-end truncation 14 nt] | 0.45 normalized Rmax | 0.48 normalized Rmax | 
45 | UGAGCCGGACUU (ssRNA, 2'-OMe all, PS all) [In3E3 both-end truncation 12 nt] | 0.2 normalized Rmax | 0.08 normalized Rmax | 
46 | AGCCGGAC (ssRNA, 2'-OMe all, PS all [2'-OMe at 1-8 (all); PS at all linkages]) [In3E3 both-end truncation 8 nt] | 0.07 normalized Rmax | -0.07 normalized Rmax | 
47 | CAGAGGCAGCAGUACGACGG (ssRNA, 2'-OMe all, PS three at each end) [LSA_ATG 2'-OMe PS ends (DKLS286198)] | 0.17 normalized Rmax |  | 
48 | GGAGGGAGUCGGACUUGUCU (ssRNA, 2'-OMe all, full PS) [DKLS444294 (SEQ 65)] |  |  | binding signal [6]: 1.58 normalized Rmax; binding signal [7]: 1.78 normalized Rmax
49 | GCGGUGAACCGGAGUUGGCU (ssRNA, 2'-OMe all, full PS) [DKLS438994 (SEQ 66)] |  |  | binding signal [6]: 1.03 normalized Rmax; binding signal [7]: 1.11 normalized Rmax
50 | CCAGUGAGCCG (ssRNA, 2'-OMe all, full PS) [In3E3 3' truncation 11 nt] |  |  | binding signal [6]: 0.15 normalized Rmax; binding signal [7]: -0.03 normalized Rmax
